{"source": "patent US9533026B2", "about": "“Polypeptide compounds for inhibiting angiogenesis and tumor growth” (VasGene Therapeutics, Inc., priority 2004, dated 2017)", "molecules": {"B1": {"name": "B4ECv3: soluble extracellular domain derivative of human EphB4, SEQ ID NO:1 (protein)", "chain": "MELRVLLCWASLAAALEETLLNTKLETADLKWVTFPQVDGQWEELSGLDEEQHSVRTYEVCEVQRAPGQAHWLRTGWVPRRGAVHVYATLRFTMLECLSLPRAGRSCKETFTVFYYESDADTATALTPAWMENPYIKVDTVAAEHLTRKRPGAEATGKVNVKTLRLGPLSKAGFYLAFQDQGACMALLSLHLFYKKCAQLTVNLTRFPETVPRELVVPVAGSCVVDAVPAPGPSPSLYCREDGQWAEQPVTGCSCAPGFEAAEGNTKCRACAQGTFKPLSGEGSCQPCPANSHSNTIGSAVCQCRVGYFRARTDPRGAPCTTPPSAPRSVVSRLNGSSLHLEWSAPLESGGREDLTYALRCRECRPGGSCAPCGGDLTFDPGPRDLVEPWVVVRGLRPDFTYTFEVTALNGVSSLATGPVPFEPVNVTTDREVPPAVSDIRVTRSSPSSLSLAWAVPRAPSGAWLDYEVKYHEKGAEGPSSVRFLKTSENRAELRGLKRGASYLVQVRARSEAGYGPFGQEHHSQTQLDESEGWREQGSKRAILQIEGKPIPNPLLGLDSTRTGHHHHHH", "modifications": "Recombinant B4ECv3 protein"}, "B2": {"name": "soluble EphB4: soluble EphB4 extracellular domain protein; exact construct not stated at the results (protein)", "chain": "LEETLLNTKLETADLKWVTFPQVDGQWEELSGLDEEQHSVRTYEVCDVQRAPGQAHWLRTGWVPRRGAVHVYATLRFTMLECLSLPRAGRSCKETFTVFYYESDADTATALTPAWMENPYIKVDTVAAEHLTRKRPGAEATGKVNVKTLRLGPLSKAGFYLAFQDQGACMALLSLHLFYKKCAQLTVNLTRFPETVPRELVVPVAGSCVVDAVPAPGPSPSLYCREDGQWAEQPVTGCSCAPGFEAAEGNTKCRACAQGTFKPLSGEGSCQPCPANSHSNTIGSAVCQCRVGYFRARTDPRGAPCTTPPSAPRSVVSRLNGSSLHLEWSAPLESGGREDLTYALRCRECRPGGSCAPCGGDLTFDPGPRDLVEPWVVVRGLRPDFTYTFEVTALNGVSSLATGPVPFEPVNVTTDREVPPAVSDIRVTRSSPSSLSLAWAVPRAPSGAVLDYEVKYHEKGAEGPSSVRFLKTSENRAELRGLKRGASYLVQVRARSEAGYGPFGQEHHSQTQLDESEGWREQLA"}}, "key": {"[1]": {"test_system": "SCC15 tumors", "experiment": "SCC15 tumor growth and histology in nude mice, soluble EphB4", "type": "in vivo, mouse", "details": "for SCC15 tumor growth: Balb/C nu/nu mice", "protocol": "The same model was used to determine the effects of soluble EphB4 in vivo. SCC15 tumors implanted subcutaneously, pre-incubated with matrigel and with or w/o growth factors, as well as implanted sc alone, and mice treated sc or ip daily with 1-5 μg of soluble EphB4 were carried out.\nSubcutaneously inject logarithmically growing SCC15, head and neck squamous cell carcinoma cell line, at 5×10^6 cell density; with or without EphB4 ECD in the presence or absence of human bFGF, into athymic Balb/c nude mice, along with Matrigel (BD Bioscience) synthetic basement membrane (1:1 v/v), and examine tumors within 2 weeks. […] There was no difference in body weight between the groups. Immunohistochemical examination of cross-sections of resected tumors and TUNEL-positive apoptosis or necrosis, CD34 immunostaining, and BrdU proliferation rate will be performed, after deparaffinized, rehydrated, and quenched for endogenous peroxidase activity, and after 10 min permeabilization with proteinase K. Quantitative assessment of vascular densities will also be performed. Local intratumoral delivery or IV delivery of EphB4 ECD will also be performed twice a week.\n30 athymic nude mice, BALB/c (nu/nu), were each injected with 1×10^6 B16 melanoma cells with 0.1 ml PBS mixed with 0.1 ml matrigel or 1.5×10^6 SCC15 cells resuspended in 200 μl of DMEM serum-free medium and injected subcutaneously on day 0 on the right shoulder region of mice. Proteins were injected intravenously or subcutaneously, around the tumor beginning on day 1 at a loading dose of 4 μg/mg, with weekly injections of 2 ug/mg. (10 μg/g, 50 μg/kg/day), and at 2 weeks post-inoculation. Mice are sacrificed on Day 14. Control mice received PBS 50 μl each day.\nAll animals were treated under protocols approved by the institutional animal care committees. Cancer cells (5×10^6) were subcutaneously inoculated into the dorsal skin of nude mice. When the tumor had grown to a size of about 100 mm^3 (usually it took 1[…]2 days), sEphB4 was either intraperitoneally or subcutaneously injected once/day, and tumorigenesis was monitored for 2 weeks. Tumor volume was calculated according to the formula a^2xb, where a and b are the smallest and largest diameters, respectively. A Student's t test was used to compare tumor volumes, with P<0.05 being considered significant.\nTumors were fixed in 4% formaldehyde, embedded in paraffin, sectioned by 5 μm, and stained with hematoxylin[…]eosin. Vessel density was semi-quantitated using a computer-based image analyzer (five fields per section from three mice in each group)."}, "[2]": {"test_system": "bFGF-induced corneal neovascularization", "experiment": "Mouse corneal micropocket assay", "type": "in vivo", "details": "mouse cornea, day 7 of implantation", "description": "To further investigate the antiangiogenic activity of soluble EphB4 in vivo, we studied the inhibitory effect of administration of soluble EphB4 on neovascularization in the mouse cornea induced by bFGF. Hydron Pellets implanted into corneal micropocket could induce angiogenesis, in the presence of growth factors, in a typically avascular area. The angiogenesis response in mice cornea was moderate, the appearance of vascular buds was delayed and the new capillaries were sparse and grew slowly.\nMouse corneal micropocket assay was performed according to that detailed by Kenyon et al., 1996. Briefly, hydron pellets (polyhydroxyethylmethacrylate [polyHEMA], Interferon Sciences, New Brunswick, N.J., U.S.A.) containing either 90 ng of bFGF (R&D) or 180 ng of VEGF (R&D Systems, Minneapolis, Minn., U.S.A.) and 40 μg of sucrose aluminium sulfate (Sigma) were prepared. Using an operating microscope, a stromal linear keratotomy was made with a surgical blade (Bard-Parker no. 15) parallel to the insertion of the lateral rectus muscle in an anesthetized animal. An intrastromal micropocket was dissected using a modified von Graefe knife (2^••30 mm). […] The difference in pellet location for each growth factor was determined to be necessary given the relatively weaker angiogenic stimulation of VEGF in this model. […]"}, "[3]": {"test_system": "HUVECS", "experiment": "MTS cytotoxicity assay", "type": "cell-based, human"}, "[4]": {"test_system": "EphB4 receptor", "experiment": "EphB4 receptor phosphorylation in HUVECs (Western blot)", "type": "cell-based, human", "details": "serum-starved HUVECs, in the presence of EphrinB2Fc", "description": "We examined EphB4 receptor phosphorylation in HUVECs by performing Western blot analyses with lysates from soluble EphB4-treated cells and antibodies against phosphor-tyrosine. […] Ephrin B2Fc without the soluble EphB4 protein induced phosphorylation of EphB4 receptor (FIG. 22)."}, "[5]": {"test_system": "HNSCC-15 cells", "experiment": "Cell cycle FACS of HNSCC cells with soluble EphB4ECD", "type": "cell-based, human"}, "[6]": {"test_system": "KS-SLK cells", "experiment": "KS-SLK cord formation on Matrigel", "type": "cell-based, human", "protocol": "Cord formation assay of HUVEC in Matrigel™ (upper row). Cells in exponential growth phase were treated overnight with the indicated concentrations of EphB4 extracellular domain (ECD) prior to plating on Matrigel™. Cells were trypsinized and plated (1×10^5 cells/well) in a 24-well plate containing 0.5 ml Matrigel™. Shown are representative 20× phase contrast fields of cord formation after 8 hr plating on Matrigel™ in the continued presence of the test compounds as shown. Original magnification 200×. KS-SLK cells treated in a similar manner (middle row) in a cord formation assay on Matrigel™. […] After 7 days the plugs were removed, sectioned and stained with H&E to visualize cells migrating into the matrix."}, "[7]": {"test_system": "SCC15 tumors", "experiment": "SCC15 tumor growth and histology in nude mice, soluble EphB4", "type": "in vivo, mouse", "details": "treated vs control tumors, CD31"}}, "note": "“Also recorded” adds a separate entry of the source."}
{"molecule": "B1", "values": [{"measurement": "SCC15 tumor growth", "setting": "[1]", "value": "inhibits"}, {"measurement": "corneal neovascularization induced by bFGF", "setting": "[2]", "value": "inhibits"}]}
{"molecule": "B2", "values": [{"measurement": "cytotoxic effect", "setting": "[3]", "value": "no detectable cytotoxic effect"}, {"measurement": "level of phosphorylated EphB4", "setting": "[4]", "value": "rapid and transient decrease"}, {"measurement": "SCC15 tumor growth", "setting": "[1]", "value": "inhibits; also recorded: reduced growth rate"}, {"measurement": "tumor angiogenesis", "setting": "[1]; SCC15, premixed with Matrigel plus growth factors, 10 to 14 days, FITC-lectin", "value": "marked inhibition"}, {"measurement": "Tumor volumes versus vehicle groups", "setting": "[1]; co-injected with Matrigel, presence and absence of growth factor, within 2 weeks", "value": "three-fold smaller"}, {"measurement": "Fibrin deposition in and around blood vessels", "setting": "[1]; inner viable rim and central necrotic core, Masson's Trichrome", "value": "increased"}, {"measurement": "effects on the endothelium in normal tissues", "setting": "[1]; lungs, liver and kidneys", "value": "no such effects"}, {"measurement": "Necrosis, percentage of tumor section area", "setting": "[1]; treated vs control, p<0.02", "value": "more extensive"}, {"measurement": "body weight", "setting": "[1]; tumor-bearing mice", "value": "no significant effect"}, {"measurement": "tolerability in vivo", "setting": "[1]; tumor-bearing mice, general well-being", "value": "well tolerated"}, {"measurement": "body weight", "setting": "[1]; tumor-bearing mice, listed as EphB4 ECD", "value": "no difference"}, {"measurement": "corneal neovascularization induced by bFGF", "setting": "[2]", "value": "markedly inhibited"}, {"measurement": "cell cycle distribution", "setting": "[5]", "value": "accumulation in subG0/G1 and S/G2 phases"}, {"measurement": "cord formation", "setting": "[6]", "value": "inhibits"}, {"measurement": "Microvessel density in the outer viable rim of tumor cells", "setting": "[7]", "value": "similar"}]}
